B1: 5T4 9-mer peptide 190 (peptide)
peptide: KGIKKWMHN
B2: 5T4 9-mer peptide 195 (peptide)
peptide: RDACRDHME
B3: 5T4 9-mer peptide 178 (peptide)
peptide: SYVFLGIVL
B4: 5T4 9-mer peptide 197 (peptide)
peptide: RDHMEGYHY
B5: 5T4 9-mer peptide 185 (peptide)
peptide: IFLLVLYLN
B6: 5T4 9-mer peptide 196 (peptide)
peptide: ACRDHMEGY
B7: 5T4 9-mer peptide 184 (peptide)
peptide: GAIFLLVLY
B8: 5T4 9-mer peptide 192 (peptide)
peptide: KWMHNIRDA
B9: 5T4 9-mer peptide 180 (peptide)
peptide: LGIVLALIG
B10: 5T4 9-mer peptide 200 (peptide)
peptide: YHYRYEINA
B11: 5T4 9-mer peptide 194 (peptide)
peptide: NIRDACRDH
B12: 5T4 9-mer peptide 193 (peptide)
peptide: MHNIRDACR
B13: 5T4 9-mer peptide 204 (peptide)
peptide: ADPRLTNLS
B14: 5T4 9-mer peptide 188 (peptide)
peptide: YLNRKGIKK
B15: 5T4 9-mer peptide 189 (peptide)
peptide: NRKGIKKWM
B16: 5T4 9-mer peptide 199 (peptide)
peptide: EGYHYRYEI
B17: 5T4 9-mer peptide 203 (peptide)
peptide: INADPRLTN
B18: 5T4 9-mer peptide 205 (peptide)
peptide: PRLTNLSSN
B19: 5T4 9-mer peptide 206 (peptide)
peptide: LTNLSSNSD
B20: 5T4 9-mer peptide 202 (peptide)
peptide: YEINADPRL
B21: 5T4 9-mer peptide 201 (peptide)
peptide: YRYEINADP
B22: 5T4 9-mer peptide 191 (peptide)
peptide: IKKWMHNIR
B23: 5T4 9 mer peptide 32 PALCECSEA (peptide)
peptide: PALCECSEA
notes: also called Peptide No 32
B24: 5T4 9 mer peptide 8 RLRLARLAL (peptide)
peptide: RLRLARLAL
notes: also called Peptide No 8
B25: 5T4 9 mer peptide 23 APFLASAVS (peptide)
peptide: APFLASAVS
notes: also called Peptide No 23
B26: 5T4 9 mer peptide 27 SAQPPLPDQ (peptide)
peptide: SAQPPLPDQ
notes: also called Peptide No 27
B27: 5T4 9 mer peptide 33 LCECSEAAR (peptide)
peptide: LCECSEAAR
notes: also called Peptide No 33
B28: 5T4 9 mer peptide 31 QCPALCECS (peptide)
peptide: QCPALCECS
notes: also called Peptide No 31
B29: 5T4 9 mer peptide 35 SEAARTVKC (peptide)
peptide: SEAARTVKC
notes: also called Peptide No 35
B30: 5T4 9 mer peptide 40 NRNLTEVPT (peptide)
peptide: NRNLTEVPT
notes: also called Peptide No 40
B31: 5T4 9 mer peptide 25 ASAVSAQPP (peptide)
peptide: ASAVSAQPP
notes: also called Peptide No 25
B32: 5T4 9 mer peptide 37 RTVKCVNRN (peptide)
peptide: RTVKCVNRN
notes: also called Peptide No 37
B33: 5T4 9 mer peptide 30 PDQCPALCE (peptide)
peptide: PDQCPALCE
notes: also called Peptide No 30
B34: 5T4 9 mer peptide 1 MPGGCSRGP (peptide)
peptide: MPGGCSRGP
notes: also called Peptide No 1
B35: 5T4 9 mer peptide 28 QPPLPDQCP (peptide)
peptide: QPPLPDQCP
notes: also called Peptide No 28
B36: 5T4 9 mer peptide 34 ECSEAARTV (peptide)
peptide: ECSEAARTV
notes: also called Peptide No 34
B37: 5T4 9 mer peptide 38 VKCVNRNLT (peptide)
peptide: VKCVNRNLT
notes: also called Peptide No 38

Each binder was assayed against T1, MHC class I allele A*0201 monomer (human, biotinylated, bound to streptavidin-coated plate) (assay: iTopia, multiparametric iScore).
T1 construct: also called A2; HLA-A2
Method: (§1) The 9 mers were tested for Peptide Binding, Off Rate and Affinity using iTopia Epitope Discovery System in accordance with the manufacturer's instructions. Briefly, 96 well microtitre plates coated with MHC molecules representing different MHC alleles are used to identify candidate peptides. […] Determinations are performed in duplicate using an ELISA plate reader and included allele specific positive controls.
(§2) Finally, multiparametric analysis is performed on the results from these assays and an iScore is generated. The iScore represents a measure of the overall quality of peptide-MHC binding, enabling candidate peptides to be ranked in order of binding quality and allowing rational prioritisation of peptides for functional cellular follow-up studies.

Binder | iScore
B1 | 0
B2 | 0.08
B3 | 0.118
B4 | 0
B5 | 0
B6 | 0
B7 | 0
B8 | 0.45
B9 | 0
B10 | 0
B11 | 0
B12 | 0.093
B13 | 0
B14 | 0.118
B15 | 0.138
B16 | 0
B17 | 0
B18 | 0
B19 | 0.027
B20 | 0.077
B21 | 0
B22 | 0.181

What follows are binders tested against T2, MHC class I allele B*0702 monomer (human, biotinylated, bound to streptavidin-coated plate) (assay: iTopia, multiparametric iScore).
T2 construct: also called B7; HLA-B7
Method: as §1, §2

Binder | iScore
B1 | 0
B2 | 0
B3 | 0.045
B4 | 0
B5 | 0
B6 | 0
B7 | 0
B8 | 0
B9 | 0
B10 | 0
B11 | 0
B12 | 0
B13 | 0.094
B14 | 0.089
B15 | 0
B16 | 0
B17 | 0
B18 | 0
B19 | 0
B20 | 0
B21 | 0
B22 | 0

These binders were tested against T3, MHC class I allele A*0101 monomer (human, biotinylated, bound to streptavidin-coated plate) (assay: iTopia, multiparametric iScore).
T3 construct: placeholder peptide and b2M removed, then reconstituted with test peptide and fresh b2M; also called A1; HLA-A1
Method: as §1, §2

Binder | iScore
B1 | 0
B2 | 0
B3 | 0
B4 | 0
B5 | 0
B6 | 0
B7 | 0
B8 | 0
B9 | 0
B10 | 0
B11 | 0
B12 | 0
B13 | 0
B14 | 0
B15 | 0
B16 | 0
B17 | 0
B18 | 0
B19 | 0
B20 | 0
B21 | 0
B22 | 0

The binders below were run against T4, MHC class I allele A*0301 monomer (human, biotinylated, bound to streptavidin-coated plate) (assay: iTopia, multiparametric iScore).
T4 construct: also called A3; HLA-A3
Method: as §1, §2

Binder | iScore
B1 | 0
B2 | 0
B3 | 0
B4 | 0
B5 | 0
B6 | 0
B7 | 0
B8 | 0
B9 | 0
B10 | 0
B11 | 0
B12 | 0
B13 | 0
B14 | 0.065
B15 | 0
B16 | 0
B17 | 0
B18 | 0
B19 | 0
B20 | 0
B21 | 0
B22 | 0

What follows are binders tested against T5, MHC class I allele A*0301 (bound via biotin to streptavidin-coated plate) (assay: iTopia peptide binding assay).
T5 construct: iTopia MHC class I monomer on the plate; placeholder peptide and b2M removed, then reconstituted with test peptide and fresh b2M; also called A3; HLA A3
Method: as §1
(§3) i) Peptide Binding—This assay measures the ability of individual peptides to bind to the MHC molecules under standardized optimal binding conditions. The assay is performed for all the test peptides across the selected MHC alleles. The test peptides identified as “binders” are characterized further in terms of affinity and dissociation experiments.

Binder | % of positive control peptide binding [%]
B23 | 0
B24 | 43
B25 | 0
B26 | 0
B27 | 0
B28 | 0
B29 | 0
B30 | 0
B31 | 0
B32 | 12
B33 | 0
B34 | 0
B35 | 1
B36 | 0
B37 | 0

Each binder was assayed against T6, MHC class I allele A*0101 (bound via biotin to streptavidin-coated plate) (assay: iTopia peptide binding assay).
T6 construct: iTopia MHC class I monomer on the plate; placeholder peptide and b2M removed, then reconstituted with test peptide and fresh b2M; also called A1; HLA A1
Method: as §1, §3

Binder | % of positive control peptide binding [%]
B23 | 4
B24 | 3
B25 | 1
B26 | 2
B27 | 3
B28 | 3
B29 | 5
B30 | 1
B31 | 2
B32 | 7
B33 | 5
B34 | 0
B35 | 6
B36 | 2
B37 | 6

What follows are binders tested against T7, MHC class I allele B*0702 (bound via biotin to streptavidin-coated plate) (assay: iTopia peptide binding assay).
T7 construct: iTopia MHC class I monomer on the plate; placeholder peptide and b2M removed, then reconstituted with test peptide and fresh b2M; also called B7; HLA B7
Method: as §1, §3

Binder | % of positive control peptide binding [%]
B23 | 0
B24 | 46
B25 | 37
B26 | 3
B27 | 0
B28 | 0
B29 | 0
B30 | 5
B31 | 0
B32 | 3
B33 | 1
B34 | 3
B35 | 3
B36 | 0
B37 | 2

What follows are binders tested against T8, MHC class I allele A*0201 (bound via biotin to streptavidin-coated plate) (assay: iTopia peptide binding assay).
T8 construct: iTopia MHC class I monomer on the plate; placeholder peptide and b2M removed, then reconstituted with test peptide and fresh b2M; also called A2; HLA A2
Method: as §1, §3

Binder | % of positive control peptide binding [%]
B23 | 19
B25 | 15
B26 | 13
B27 | 6
B28 | 2
B29 | 1
B30 | 6
B31 | 5
B32 | 12
B33 | 3
B34 | 9
B35 | 5
B36 | 4
B37 | 3
